Article PMC5535997 (International Journal of Molecular Sciences, 2017)

Each binder was assayed against influenza A virus nucleoprotein (NP), strain A/WSN/33, from infected MDCK cells (Influenza A virus A/WSN/1933 (H1N1), [35S]Met/Cys radiolabel) (assay: pull-down). Settings: partners not purified.
Chain of influenza A virus nucleoprotein (NP), strain A/WSN/33, from infected MDCK cells (Influenza A virus A/WSN/1933 (H1N1), [35S]Met/Cys radiolabel) (P15682 whole entry): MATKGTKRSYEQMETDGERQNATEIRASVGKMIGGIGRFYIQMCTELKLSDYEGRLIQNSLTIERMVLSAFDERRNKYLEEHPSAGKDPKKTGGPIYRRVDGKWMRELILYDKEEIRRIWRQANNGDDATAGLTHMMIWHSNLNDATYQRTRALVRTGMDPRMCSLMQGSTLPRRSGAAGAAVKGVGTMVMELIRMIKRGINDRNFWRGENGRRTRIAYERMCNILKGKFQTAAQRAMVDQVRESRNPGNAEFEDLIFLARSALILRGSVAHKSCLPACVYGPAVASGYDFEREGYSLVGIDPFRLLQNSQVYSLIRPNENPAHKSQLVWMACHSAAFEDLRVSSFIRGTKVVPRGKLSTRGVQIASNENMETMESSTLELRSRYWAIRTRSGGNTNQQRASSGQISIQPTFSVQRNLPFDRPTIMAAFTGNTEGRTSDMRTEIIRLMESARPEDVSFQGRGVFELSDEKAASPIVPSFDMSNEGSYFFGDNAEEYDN

Binder	binding result
C8 displayed on S. aureus RN4220 (VHH) VHH: QVHSWSLGGGLVQSGGSLTLSCAASGFTFTNAYMSWVRQGPGKEPEWVSGINARGVGTRYADFVKGRFTISRDNAKTILYLQMNSLKPEDTALYYCASDFGPSGGRWDPPRRRGQGTWVTVSS	binds
D4 displayed on S. aureus RN4220 (VHH, also called anti-NP-VHH5) VHH: QLQLVETGGGLVQSGGSLRLSCAASGFTLGSYAIGWYRQAPGKERERVSCISSSGISTNYADPVKGRFTISRDNAKNTVYLQMDSLKPEDTAVYYCAADSFFCLGPNMDYWGKGTLVIVSS	binds
VHH52 displayed on S. aureus RN4220 (VHH, also called anti-NP-VHH1) VHH: QVQLQESGGGLVQAGGSLRLTCALSERTSTSYAQGWFRQPPGKEREFVASLRTHDGNTHYTDSVKGRFTISRDNAENTLYLQMNSLKTEDTAVYYCAASLGYSGAYASGYDYWGQGTQVTVSS	binds
VHH54 displayed on S. aureus RN4220 (VHH, also called anti-NP-VHH2) VHH: QVQLQESGGGLVQAGGSLRLSCAASGRTLSSYAMGWFRQAPGKERELVSAISWSGLSTYYEDSVKGRFTISRDNAKNTMYLQMNSLKPEDTAIYYCAADIGWPLRADSGSWGQGTQVTVSS	binds
VHH54.1 displayed on S. aureus RN4220 (VHH, also called anti-NP-VHH4) VHH: QVQLVESGGGLVQAGASLRLSCATSGRTLSGYAMGWFRQAPGKERELTAAISWSGISTYYTDSVKGRFTISRDNAKNTVYLQMNSLNSEDTGVYYCVADVGWPLRADRGSWGQGTQVTISS	binds
VHH52.1 displayed on S. aureus RN4220 (VHH, also called anti-NP-VHH6) VHH: QLQLVESGGGLVQAGGSLRLSCAASGSTFSNYAMGWFRQAPGKEREFVASIRWIGGSTRYADSVKGRFTTSRDNAKNALYLQMNSLKTEDTAVYYCAASLGYSASYASGYDYWGQGTQVTVSS	binds
VHH62 displayed on S. aureus RN4220 (VHH, also called anti-NP-VHH3) VHH: QVQLVESGGGLVQPGGSLRLSCAASGFTLDGYAIGWFRQAPGKEREGVSCISSSGKSTNYADSVKGRFTISRDNQQNTVYLQMNSLKPEDTAVYYCAATVGLFCVGGTYGMDYWGKGTLVKMSS	binds
